These are literature values, as cited in patent US20060193824A1, “Methods for the treatment of infectious and inflammatory airway diseases” (priority 2005, published 2006).

In data set [1] the test system is respiratory epithelial cells.

B1: IL-4: cytokine obtainable from R & D Systems (protein, UniProt P05112 25-153, looked up)
Interleukin-4: HKCDITLQEIIKTLNSLTEQKTLCTELTVTDIFAASKNTTEKETFCRAATVLRQFYSHHEKDTRCLGATAQQFHRHKQLIRFLKRLDRNLWGLAGLNSCPVKEANQSTLENFLERLKTIMREKYSKCSS
On to B1, for which, in the data set with mucus production, the mucus production entry is given as “modulates mucus production”.

B2: Human neutrophil elastase: Human neutrophil elastase (protein, UniProt P08246 30-267, looked up)
Neutrophil elastase: IVGGRRARPHAWPFMVSLQLRGGHFCGATLIAPNFVMSAAHCVANVNVRAVRVVLGAHNLSRREPTRQVFAVQRIFENGYDPVNLLNDIVILQLNGSATINANVQVAQLPAQGRRLGNGVQCLAMGWGLLGRNRGIASVLQELNVTVVTSLCRRSNVCTLVRGRQAGVCFGDSGSPLVCNGLIHGIASFVRGGCASGLYPDAFAPVAQFVNWIDSIIQRSEDNPCPHPRDPDPASRTH
On to B2, for which, in data set [1], the MUC5AC levels result is “increase MUC5AC levels”.

B3: IL-10: cytokine obtainable from R & D systems (protein, UniProt P22301 19-178, looked up)
Interleukin-10: SPGQGTQSENSCTHFPGNLPNMLRDLRDAFSRVKTFFQMKDQLDNLLLKESLLEDFKGYLGCQALSEMIQFYLEEVMPQAENQDPDIKAHVNSLGENLKTLRLRLRRCHRFLPCENKSKAVEQVKNAFNKLQEKGIYKAMSEFDIFINYIEAYMTMKIRN
For the molecule B3, the inflammation entry with inflammation is “attenuates excessive inflammation”.
